The data set deals with RUNX1 (Homo sapiens, UniProt Q01196). Description: gcPBM; 2 nM RUNX1. Particulars: tags: N-terminal GST (pDEST15), kept (PMC6008103); label: surface-attached array probe.

Data on 42 molecules can be found in PMC10681739, “High-throughput data and modeling reveal insights into the mechanisms of cooperative DNA-binding by transcription factor proteins”.

RUNX1, sequence (Q01196 whole entry): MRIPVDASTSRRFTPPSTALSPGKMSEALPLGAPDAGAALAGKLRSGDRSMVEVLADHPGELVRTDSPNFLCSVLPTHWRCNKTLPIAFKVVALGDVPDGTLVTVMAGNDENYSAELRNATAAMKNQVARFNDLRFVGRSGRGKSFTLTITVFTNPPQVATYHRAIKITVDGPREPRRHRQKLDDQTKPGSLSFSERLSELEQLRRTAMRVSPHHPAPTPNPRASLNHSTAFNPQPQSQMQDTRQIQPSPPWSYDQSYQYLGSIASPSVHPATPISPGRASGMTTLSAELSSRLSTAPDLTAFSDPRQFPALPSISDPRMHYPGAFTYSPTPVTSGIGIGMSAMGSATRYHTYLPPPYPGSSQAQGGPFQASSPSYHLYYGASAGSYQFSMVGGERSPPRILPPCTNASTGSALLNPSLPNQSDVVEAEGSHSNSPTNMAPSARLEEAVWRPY

B1: Table S3 B row 2418 (dsDNA)
DNA 1: TTCTCTGCACTGCGGTTTACTCAGAAAGAAGACAAC
DNA 2: GTTGTCTTCTTTCTGAGTAAACCGCAGTGCAGAGAA
In the case of B1, the binding signal is 10900 PBM fluorescence, median of replicate spots.

B2: Table S3 B row 531 (dsDNA)
DNA 1: ATAGCTTGTGGTTTATGGGTCAGCAAGTTGAGGGTG
DNA 2: CACCCTCAACTTGCTGACCCATAAACCACAAGCTAT
For B2, the binding signal was 13900 PBM fluorescence, median of replicate spots.

B3: Table S3 B row 3458 (dsDNA)
DNA 1: CTGATTGTGGTTTTGATTTGCAATTCCCTGATGATT
DNA 2: AATCATCAGGGAATTGCAAATCAAAACCACAATCAG
Turning to B3, the binding signal was 25900 PBM fluorescence, median of replicate spots.

B4: Table S3 B row 1191 (dsDNA)
DNA 1: CTCTTGCGGTCAGGTCACGCCGCCTGAAGCCGCCCC
DNA 2: GGGGCGGCTTCAGGCGGCGTGACCTGACCGCAAGAG
Consider B4, for which the binding signal is 30900 PBM fluorescence, median of replicate spots.

B5: Table S3 B row 2138 (dsDNA)
DNA 1: TGTGAAACCGCAGGGGTTCAGGGAGGCAGTGTAAGC
DNA 2: GCTTACACTGCCTCCCTGAACCCCTGCGGTTTCACA
B5: the binding signal was 11000 PBM fluorescence, median of replicate spots.

B6: Table S3 B row 584 (dsDNA)
DNA 1: GTCCTCTTTGTGGTTTCCATTTGCTTTGTGAAAGAG
DNA 2: CTCTTTCACAAAGCAAATGGAAACCACAAAGAGGAC
Turning to B6, the binding signal was 34700 PBM fluorescence, median of replicate spots.

B7: Table S3 B row 1866 (dsDNA)
DNA 1: TCTGCGGTCAGCTGACTGTGCCAGAGTGCCGCGGGG
DNA 2: CCCCGCGGCACTCTGGCACAGTCAGCTGACCGCAGA
On to B7, for which the binding signal was 16100 PBM fluorescence, median of replicate spots.

B8: Table S3 B row 2269 (dsDNA)
DNA 1: ACTGTTATTGTGGTTTTTGGGGACTGCCTCTTTGTC
DNA 2: GACAAAGAGGCAGTCCCCAAAAACCACAATAACAGT
In the case of B8, the binding signal is 12500 PBM fluorescence, median of replicate spots.

B9: Table S3 B row 2218 (dsDNA)
DNA 1: TCCTTGCGGTTTGCTTTCGCCGTCTCCGAACCGAGG
DNA 2: CCTCGGTTCGGAGACGGCGAAAGCAAACCGCAAGGA
B9: the binding signal was 30700 PBM fluorescence, median of replicate spots.

B10: Table S3 B row 48 (dsDNA)
DNA 1: CCTGCTGCGGTCAGCCCTGTCTCTTTCTGTTTCTGC
DNA 2: GCAGAAACAGAAAGAGACAGGGCTGACCGCAGCAGG
As for B10, the binding signal is 16100 PBM fluorescence, median of replicate spots.

B11: Table S3 B row 3965 (dsDNA)
DNA 1: GGAGAAACCGCAACTCGGAACTACGGGAACGGAGGA
DNA 2: TCCTCCGTTCCCGTAGTTCCGAGTTGCGGTTTCTCC
As for B11, the binding signal was 26700 PBM fluorescence, median of replicate spots.

B12: Table S3 B row 2601 (dsDNA)
DNA 1: CTGCTTGTGGTTTTGGTCTGCAGCAAGCTGGGCTGC
DNA 2: GCAGCCCAGCTTGCTGCAGACCAAAACCACAAGCAG
As for B12, the binding signal is 14600 PBM fluorescence, median of replicate spots.

B13: Table S3 B row 320 (dsDNA)
DNA 1: AGAAACCACAAAACCCCATTTGAAATTCAGCCGTGC
DNA 2: GCACGGCTGAATTTCAAATGGGGTTTTGTGGTTTCT
B13: the binding signal was 15200 PBM fluorescence, median of replicate spots.

B14: Table S3 B row 3390 (dsDNA)
DNA 1: TTTCATATTTGTGGTTTTGGTGTTGCCTCTTACACA
DNA 2: TGTGTAAGAGGCAACACCAAAACCACAAATATGAAA
Turning to B14, the binding signal is 18800 PBM fluorescence, median of replicate spots.

B15: Table S3 B row 3051 (dsDNA)
DNA 1: GGCTTGTGGTTTGGTGATTGTACGTCCTTATTGATA
DNA 2: TATCAATAAGGACGTACAATCACCAAACCACAAGCC
Consider B15, for which the binding signal was 13000 PBM fluorescence, median of replicate spots.

B16: Table S3 B row 1477 (dsDNA)
DNA 1: TTCTTTGGTCAACCGCAAGCCTCTGCCGCGTCTCGC
DNA 2: GCGAGACGCGGCAGAGGCTTGCGGTTGACCAAAGAA
With B16, the binding signal is 37300 PBM fluorescence, median of replicate spots.

B17: Table S3 B row 2442 (dsDNA)
DNA 1: GTGAAAAAGTCTGTGGTTTTGTTTCTTGAACACCTG
DNA 2: CAGGTGTTCAAGAAACAAAACCACAGACTTTTTCAC
As for B17, the binding signal is 9320 PBM fluorescence, median of replicate spots.

B18: Table S3 B row 2332 (dsDNA)
DNA 1: TGTCAAAGTTTGTGGTGAGTGGCTTGCTGGAGACCC
DNA 2: GGGTCTCCAGCAAGCCACTCACCACAAACTTTGACA
B18: the binding signal is 13400 PBM fluorescence, median of replicate spots.

B19: Table S3 B row 2604 (dsDNA)
DNA 1: CGGGTTAAACCGCAGCCGCGCCCACACTTTCGGGGT
DNA 2: ACCCCGAAAGTGTGGGCGCGGCTGCGGTTTAACCCG
For B19, the binding signal was 28100 PBM fluorescence, median of replicate spots.

B20: Table S3 B row 3657 (dsDNA)
DNA 1: CCACCCAAAACCACAACCATTTGCCCCATCACTTTG
DNA 2: CAAAGTGATGGGGCAAATGGTTGTGGTTTTGGGTGG
Consider B20, for which the binding signal is 31700 PBM fluorescence, median of replicate spots.

B21: Table S3 B row 2934 (dsDNA)
DNA 1: TTTTTGTGGTTTAGCCCTCAGAGCTCCCTGCCAGAG
DNA 2: CTCTGGCAGGGAGCTCTGAGGGCTAAACCACAAAAA
B21: the binding signal was 23200 PBM fluorescence, median of replicate spots.

B22: Table S3 B row 3040 (dsDNA)
DNA 1: GCCTTTTGTGGTTTGTACCACTGCCTGCCTTTTCTG
DNA 2: CAGAAAAGGCAGGCAGTGGTACAAACCACAAAAGGC
For the molecule B22, the binding signal was 17300 PBM fluorescence, median of replicate spots.

B23: Table S3 B row 278 (dsDNA)
DNA 1: TAAGTGTTGTGGTTTTTTAGTTTACTGTTCAGTTGC
DNA 2: GCAACTGAACAGTAAACTAAAAAACCACAACACTTA
As for B23, the binding signal is 20300 PBM fluorescence, median of replicate spots.

B24: Table S3 B row 158 (dsDNA)
DNA 1: GTCTCAACCGCAAGGAGGTGTTACGTCCTCTTTTAC
DNA 2: GTAAAAGAGGACGTAACACCTCCTTGCGGTTGAGAC
In the case of B24, the binding signal was 12800 PBM fluorescence, median of replicate spots.

B25: Table S3 B row 1277 (dsDNA)
DNA 1: GGGGTGCGGTTTAGGGCGGGTTTTTTGCGCCTTGGA
DNA 2: TCCAAGGCGCAAAAAACCCGCCCTAAACCGCACCCC
For the molecule B25, the binding signal was 12400 PBM fluorescence, median of replicate spots.

B26: Table S3 B row 2433 (dsDNA)
DNA 1: GGGTTTTGTGGTTAGCAAGTTCCAGCTCCCGTCGCA
DNA 2: TGCGACGGGAGCTGGAACTTGCTAACCACAAAACCC
For the molecule B26, the binding signal was 18900 PBM fluorescence, median of replicate spots.

B27: Table S3 B row 2387 (dsDNA)
DNA 1: CATTTCTGTTGCGGTTGGCAGCGTCTCCATCCACGG
DNA 2: CCGTGGATGGAGACGCTGCCAACCGCAACAGAAATG
As to B27, the binding signal is 12200 PBM fluorescence, median of replicate spots.

B28: Table S3 B row 741 (dsDNA)
DNA 1: CTTAAAACCACAACACAATAACACCAGAGGACATGA
DNA 2: TCATGTCCTCTGGTGTTATTGTGTTGTGGTTTTAAG
Take B28: the binding signal was 14300 PBM fluorescence, median of replicate spots.

B29: Table S3 B row 1506 (dsDNA)
DNA 1: GTTCCTGGTTTGTGGTTATGATTTGCTGTTTGCCTT
DNA 2: AAGGCAAACAGCAAATCATAACCACAAACCAGGAAC
Regarding B29, the binding signal is 24200 PBM fluorescence, median of replicate spots.

B30: Table S3 B row 2123 (dsDNA)
DNA 1: CTCTGAACGTCCTCTCTTTTAACCACAACTTACTAC
DNA 2: GTAGTAAGTTGTGGTTAAAAGAGAGGACGTTCAGAG
For B30, the binding signal was 10800 PBM fluorescence, median of replicate spots.

B31: Table S3 B row 226 (dsDNA)
DNA 1: TTTCTTTCTGTGGTTTATCCTTATTTGCTGGCTTCG
DNA 2: CGAAGCCAGCAAATAAGGATAAACCACAGAAAGAAA
In the case of B31, the binding signal is 12500 PBM fluorescence, median of replicate spots.

B32: Table S3 B row 1134 (dsDNA)
DNA 1: GTTAAGCTGCGGTCAGACCTAAGGGAGGATCTGGCT
DNA 2: AGCCAGATCCTCCCTTAGGTCTGACCGCAGCTTAAC
As to B32, the binding signal was 17500 PBM fluorescence, median of replicate spots.

B33: Table S3 B row 3806 (dsDNA)
DNA 1: TCAGTCTTGTGGTTAAGGGAGGCAGGGTACTGTTGG
DNA 2: CCAACAGTACCCTGCCTCCCTTAACCACAAGACTGA
Consider B33, for which the binding signal is 20500 PBM fluorescence, median of replicate spots.

B34: Table S3 B row 272 (dsDNA)
DNA 1: ACGAGGTTGCGGTTTCTCCACCTCCTCAACAACCTG
DNA 2: CAGGTTGTTGAGGAGGTGGAGAAACCGCAACCTCGT
For the molecule B34, the binding signal was 32700 PBM fluorescence, median of replicate spots.

B35: Table S3 B row 378 (dsDNA)
DNA 1: GCCTGCGGTTTGGGTGCTGTGACCGTACGGGGGCGG
DNA 2: CCGCCCCCGTACGGTCACAGCACCCAAACCGCAGGC
Turning to B35, the binding signal is 10500 PBM fluorescence, median of replicate spots.

B36: Table S3 B row 2012 (dsDNA)
DNA 1: TTTTTGTGTTTTTGTGGTTTCTTCCGATCTTAGTCA
DNA 2: TGACTAAGATCGGAAGAAACCACAAAAACACAAAAA
B36: the binding signal was 9430 PBM fluorescence, median of replicate spots.

B37: Table S3 B row 1072 (dsDNA)
DNA 1: CTTCTTCTTGCGGTTTCAATCACAGTAAACAGACGT
DNA 2: ACGTCTGTTTACTGTGATTGAAACCGCAAGAAGAAG
Turning to B37, the binding signal was 27500 PBM fluorescence, median of replicate spots.

B38: Table S3 B row 1768 (dsDNA)
DNA 1: TGGTTGTGGTTTGGAGATTCTGATGTCATTTGCTGT
DNA 2: ACAGCAAATGACATCAGAATCTCCAAACCACAACCA
As for B38, the binding signal was 18000 PBM fluorescence, median of replicate spots.

B39: Table S3 B row 1695 (dsDNA)
DNA 1: GCACAAAACCGCACAAACAGCCTGAAGCACAGCCCC
DNA 2: GGGGCTGTGCTTCAGGCTGTTTGTGCGGTTTTGTGC
B39: the binding signal is 16300 PBM fluorescence, median of replicate spots.

B40: Table S3 B row 474 (dsDNA)
DNA 1: TCGTATTTGCGGTCAGCCTCTTACGTAATGTGCTTG
DNA 2: CAAGCACATTACGTAAGAGGCTGACCGCAAATACGA
Consider B40, for which the binding signal was 29200 PBM fluorescence, median of replicate spots.

B41: Table S3 B row 3420 (dsDNA)
DNA 1: GGTTTGTGGTTTCCCCTTACTGTCTCCACTGCCTTC
DNA 2: GAAGGCAGTGGAGACAGTAAGGGGAAACCACAAACC
Take B41: the binding signal is 28800 PBM fluorescence, median of replicate spots.

B42: Table S3 B row 71 (dsDNA)
DNA 1: CCTTTGTTGTGGTTTTTGCAGAAAGAGAAGGGTTAG
DNA 2: CTAACCCTTCTCTTTCTGCAAAAACCACAACAAAGG
On to B42, for which the binding signal is 10300 PBM fluorescence, median of replicate spots.
